{"source": "patent US20230103631A1", "about": "“PEPTIDES AS SELECTIVE GIP RECEPTOR AGONISTS” (Sanofi, priority 2020, published 2023)", "binders": {"B1": {"name": "SEQ ID NO: 13 (peptide)", "peptide": "[NMeY][Aib]EGTFISDLSI[Aib]K([AEEA-AEEA-γGlu-C18 diacid])DRIHQEEFIEWLLAQGPSSGAPPPS-NH2", "modifications": "N-terminus assumed", "SMILES": "CC[C@H](C)[C@H](NC(=O)[C@H](Cc1ccccc1)NC(=O)[C@H](CCC(=O)O)NC(=O)[C@H](CCC(=O)O)NC(=O)[C@H](CCC(N)=O)NC(=O)[C@H](Cc1c[nH]cn1)NC(=O)[C@@H](NC(=O)[C@H](CCCNC(=N)N)NC(=O)[C@H](CC(=O)O)NC(=O)[C@H](CCCCNC(=O)COCCOCCNC(=O)COCCOCCNC(=O)CC[C@H](NC(=O)CCCCCCCCCCCCCCCCC(=O)O)C(=O)O)NC(=O)C(C)(C)NC(=O)[C@@H](NC(=O)[C@H](CO)NC(=O)[C@H](CC(C)C)NC(=O)[C@H](CC(=O)O)NC(=O)[C@H](CO)NC(=O)[C@@H](NC(=O)[C@H](Cc1ccccc1)NC(=O)[C@@H](NC(=O)CNC(=O)[C@H](CCC(=O)O)NC(=O)C(C)(C)NC(=O)[C@H](Cc1ccc(O)cc1)NC)[C@@H](C)O)[C@@H](C)CC)[C@@H](C)CC)[C@@H](C)CC)C(=O)N[C@@H](CCC(=O)O)C(=O)N[C@@H](Cc1c[nH]c2ccccc12)C(=O)N[C@@H](CC(C)C)C(=O)N[C@@H](CC(C)C)C(=O)N[C@@H](C)C(=O)N[C@@H](CCC(N)=O)C(=O)NCC(=O)N1CCC[C@H]1C(=O)N[C@@H](CO)C(=O)N[C@@H](CO)C(=O)NCC(=O)N[C@@H](C)C(=O)N1CCC[C@H]1C(=O)N1CCC[C@H]1C(=O)N1CCC[C@H]1C(=O)N[C@@H](CO)C(N)=O"}, "B2": {"name": "SEQ ID NO: 16 (peptide)", "peptide": "Y[Aib]EGTFISDLSI[Aib]K([Gly-Gly-Gly-γGlu-C18 diacid])DRIHQEEFIEWLLAQGPSSGAPPPS-NH2", "modifications": "N-terminus assumed", "SMILES": "CC[C@H](C)[C@H](NC(=O)[C@H](Cc1ccccc1)NC(=O)[C@H](CCC(=O)O)NC(=O)[C@H](CCC(=O)O)NC(=O)[C@H](CCC(N)=O)NC(=O)[C@H](Cc1c[nH]cn1)NC(=O)[C@@H](NC(=O)[C@H](CCCNC(=N)N)NC(=O)[C@H](CC(=O)O)NC(=O)[C@H](CCCCNC(=O)CNC(=O)CNC(=O)CNC(=O)CC[C@H](NC(=O)CCCCCCCCCCCCCCCCC(=O)O)C(=O)O)NC(=O)C(C)(C)NC(=O)[C@@H](NC(=O)[C@H](CO)NC(=O)[C@H](CC(C)C)NC(=O)[C@H](CC(=O)O)NC(=O)[C@H](CO)NC(=O)[C@@H](NC(=O)[C@H](Cc1ccccc1)NC(=O)[C@@H](NC(=O)CNC(=O)[C@H](CCC(=O)O)NC(=O)C(C)(C)NC(=O)[C@@H](N)Cc1ccc(O)cc1)[C@@H](C)O)[C@@H](C)CC)[C@@H](C)CC)[C@@H](C)CC)C(=O)N[C@@H](CCC(=O)O)C(=O)N[C@@H](Cc1c[nH]c2ccccc12)C(=O)N[C@@H](CC(C)C)C(=O)N[C@@H](CC(C)C)C(=O)N[C@@H](C)C(=O)N[C@@H](CCC(N)=O)C(=O)NCC(=O)N1CCC[C@H]1C(=O)N[C@@H](CO)C(=O)N[C@@H](CO)C(=O)NCC(=O)N[C@@H](C)C(=O)N1CCC[C@H]1C(=O)N1CCC[C@H]1C(=O)N1CCC[C@H]1C(=O)N[C@@H](CO)C(N)=O"}, "B3": {"name": "SEQ ID NO: 15 (peptide)", "peptide": "Y[Aib]EGTFISDLSI[Aib]K([AEEA-AEEA-γGlu-γGlu-C20 diacid])DRIHQEEFIEWLLAQGPSSGAPPPS-NH2", "modifications": "N-terminus assumed", "SMILES": "CC[C@H](C)[C@H](NC(=O)[C@H](Cc1ccccc1)NC(=O)[C@H](CCC(=O)O)NC(=O)[C@H](CCC(=O)O)NC(=O)[C@H](CCC(N)=O)NC(=O)[C@H](Cc1c[nH]cn1)NC(=O)[C@@H](NC(=O)[C@H](CCCNC(=N)N)NC(=O)[C@H](CC(=O)O)NC(=O)[C@H](CCCCNC(=O)COCCOCCNC(=O)COCCOCCNC(=O)CC[C@H](NC(=O)CC[C@H](NC(=O)CCCCCCCCCCCCCCCCCCC(=O)O)C(=O)O)C(=O)O)NC(=O)C(C)(C)NC(=O)[C@@H](NC(=O)[C@H](CO)NC(=O)[C@H](CC(C)C)NC(=O)[C@H](CC(=O)O)NC(=O)[C@H](CO)NC(=O)[C@@H](NC(=O)[C@H](Cc1ccccc1)NC(=O)[C@@H](NC(=O)CNC(=O)[C@H](CCC(=O)O)NC(=O)C(C)(C)NC(=O)[C@@H](N)Cc1ccc(O)cc1)[C@@H](C)O)[C@@H](C)CC)[C@@H](C)CC)[C@@H](C)CC)C(=O)N[C@@H](CCC(=O)O)C(=O)N[C@@H](Cc1c[nH]c2ccccc12)C(=O)N[C@@H](CC(C)C)C(=O)N[C@@H](CC(C)C)C(=O)N[C@@H](C)C(=O)N[C@@H](CCC(N)=O)C(=O)NCC(=O)N1CCC[C@H]1C(=O)N[C@@H](CO)C(=O)N[C@@H](CO)C(=O)NCC(=O)N[C@@H](C)C(=O)N1CCC[C@H]1C(=O)N1CCC[C@H]1C(=O)N1CCC[C@H]1C(=O)N[C@@H](CO)C(N)=O"}, "B4": {"name": "SEQ ID NO: 14 (peptide)", "peptide": "Y[Aib]EGTFISDLSI[Aib]K([AEEA-AEEA-γGlu-γGlu-C18 diacid])DRIHQEEFIEWLLAQGPSSGAPPPS-NH2", "modifications": "N-terminus assumed", "SMILES": "CC[C@H](C)[C@H](NC(=O)[C@H](Cc1ccccc1)NC(=O)[C@H](CCC(=O)O)NC(=O)[C@H](CCC(=O)O)NC(=O)[C@H](CCC(N)=O)NC(=O)[C@H](Cc1c[nH]cn1)NC(=O)[C@@H](NC(=O)[C@H](CCCNC(=N)N)NC(=O)[C@H](CC(=O)O)NC(=O)[C@H](CCCCNC(=O)COCCOCCNC(=O)COCCOCCNC(=O)CC[C@H](NC(=O)CC[C@H](NC(=O)CCCCCCCCCCCCCCCCC(=O)O)C(=O)O)C(=O)O)NC(=O)C(C)(C)NC(=O)[C@@H](NC(=O)[C@H](CO)NC(=O)[C@H](CC(C)C)NC(=O)[C@H](CC(=O)O)NC(=O)[C@H](CO)NC(=O)[C@@H](NC(=O)[C@H](Cc1ccccc1)NC(=O)[C@@H](NC(=O)CNC(=O)[C@H](CCC(=O)O)NC(=O)C(C)(C)NC(=O)[C@@H](N)Cc1ccc(O)cc1)[C@@H](C)O)[C@@H](C)CC)[C@@H](C)CC)[C@@H](C)CC)C(=O)N[C@@H](CCC(=O)O)C(=O)N[C@@H](Cc1c[nH]c2ccccc12)C(=O)N[C@@H](CC(C)C)C(=O)N[C@@H](CC(C)C)C(=O)N[C@@H](C)C(=O)N[C@@H](CCC(N)=O)C(=O)NCC(=O)N1CCC[C@H]1C(=O)N[C@@H](CO)C(=O)N[C@@H](CO)C(=O)NCC(=O)N[C@@H](C)C(=O)N1CCC[C@H]1C(=O)N1CCC[C@H]1C(=O)N1CCC[C@H]1C(=O)N[C@@H](CO)C(N)=O"}, "B5": {"name": "SEQ ID NO: 12 (peptide)", "peptide": "Y[Aib]EGTFISDLSI[Aib]K([AEEA-AEEA-AEEA-γGlu-C18 diacid])DRIHQEEFIEWLLAQGPSSGAPPPS-NH2", "modifications": "N-terminus assumed", "SMILES": "CC[C@H](C)[C@H](NC(=O)[C@H](Cc1ccccc1)NC(=O)[C@H](CCC(=O)O)NC(=O)[C@H](CCC(=O)O)NC(=O)[C@H](CCC(N)=O)NC(=O)[C@H](Cc1c[nH]cn1)NC(=O)[C@@H](NC(=O)[C@H](CCCNC(=N)N)NC(=O)[C@H](CC(=O)O)NC(=O)[C@H](CCCCNC(=O)COCCOCCNC(=O)COCCOCCNC(=O)COCCOCCNC(=O)CC[C@H](NC(=O)CCCCCCCCCCCCCCCCC(=O)O)C(=O)O)NC(=O)C(C)(C)NC(=O)[C@@H](NC(=O)[C@H](CO)NC(=O)[C@H](CC(C)C)NC(=O)[C@H](CC(=O)O)NC(=O)[C@H](CO)NC(=O)[C@@H](NC(=O)[C@H](Cc1ccccc1)NC(=O)[C@@H](NC(=O)CNC(=O)[C@H](CCC(=O)O)NC(=O)C(C)(C)NC(=O)[C@@H](N)Cc1ccc(O)cc1)[C@@H](C)O)[C@@H](C)CC)[C@@H](C)CC)[C@@H](C)CC)C(=O)N[C@@H](CCC(=O)O)C(=O)N[C@@H](Cc1c[nH]c2ccccc12)C(=O)N[C@@H](CC(C)C)C(=O)N[C@@H](CC(C)C)C(=O)N[C@@H](C)C(=O)N[C@@H](CCC(N)=O)C(=O)NCC(=O)N1CCC[C@H]1C(=O)N[C@@H](CO)C(=O)N[C@@H](CO)C(=O)NCC(=O)N[C@@H](C)C(=O)N1CCC[C@H]1C(=O)N1CCC[C@H]1C(=O)N1CCC[C@H]1C(=O)N[C@@H](CO)C(N)=O"}}, "note": "*1 amine or outer side, *2 acyl side, *3 side chain or, on linkers, in order; H or OH if unused. Where no end group is shown, it is not given here. Side-chain parts run from the residue outwards. [ ]: non-standard residue; d: D form. The star is where a group is joined. C20 diacid = O=C(O)CCCCCCCCCCCCCCCCCCC(=O)*; C18 diacid = O=C(O)CCCCCCCCCCCCCCCCC(=O)*; γGlu = O=C(O)[C@H](CCC(=O)[*:2])N[*:1]; NMeY = CN[C@@H](Cc1ccc(O)cc1)C(=O)O; AEEA = NCCOCCOCC(=O)O; Aib = CC(C)(N)C(=O)O"}
{"molecular_target": "human GLP-1 receptor (human, UniProt P43220 24-463)", "test": "cell-based or functional assay", "units": {"EC50 hGLP-1R 0% HSA, cAMP in HEK-293 cells": "pM"}}
{"binder": "B1", "EC50 hGLP-1R 0% HSA, cAMP in HEK-293 cells": "> 10000"}
{"binder": "B2", "EC50 hGLP-1R 0% HSA, cAMP in HEK-293 cells": "> 10000"}
{"binder": "B3", "EC50 hGLP-1R 0% HSA, cAMP in HEK-293 cells": "> 10000"}
{"binder": "B4", "EC50 hGLP-1R 0% HSA, cAMP in HEK-293 cells": "> 10000"}
{"binder": "B5", "EC50 hGLP-1R 0% HSA, cAMP in HEK-293 cells": "> 10000"}
{"molecular_target": "T1, human GIP receptor (human, UniProt P48546 22-466)", "T1 sequence (looked up)": "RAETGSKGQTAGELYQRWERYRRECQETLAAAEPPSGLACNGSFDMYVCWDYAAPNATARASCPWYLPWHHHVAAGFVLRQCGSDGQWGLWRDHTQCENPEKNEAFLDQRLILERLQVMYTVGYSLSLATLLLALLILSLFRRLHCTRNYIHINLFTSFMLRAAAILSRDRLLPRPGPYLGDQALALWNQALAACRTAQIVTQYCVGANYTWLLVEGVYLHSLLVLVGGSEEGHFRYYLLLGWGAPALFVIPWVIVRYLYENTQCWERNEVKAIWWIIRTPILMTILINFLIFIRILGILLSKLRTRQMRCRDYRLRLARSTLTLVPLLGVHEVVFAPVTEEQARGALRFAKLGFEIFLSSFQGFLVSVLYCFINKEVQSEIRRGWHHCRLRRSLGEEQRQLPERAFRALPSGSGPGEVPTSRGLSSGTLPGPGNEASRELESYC", "test": "cell-based or functional assay", "units": {"EC50 hGIPR 0% HSA, cAMP in HEK-293 cells": "pM", "EC50 hGIPR 0.1% HSA, cAMP in HEK-293 cells": "pM"}}
{"binder": "B1", "EC50 hGIPR 0% HSA, cAMP in HEK-293 cells": 0.2, "EC50 hGIPR 0.1% HSA, cAMP in HEK-293 cells": 1.76}
{"binder": "B2", "EC50 hGIPR 0% HSA, cAMP in HEK-293 cells": 0.19, "EC50 hGIPR 0.1% HSA, cAMP in HEK-293 cells": 2.55}
{"binder": "B3", "EC50 hGIPR 0% HSA, cAMP in HEK-293 cells": 0.34, "EC50 hGIPR 0.1% HSA, cAMP in HEK-293 cells": 7.65}
{"binder": "B4", "EC50 hGIPR 0% HSA, cAMP in HEK-293 cells": 0.23, "EC50 hGIPR 0.1% HSA, cAMP in HEK-293 cells": 1.56}
{"binder": "B5", "EC50 hGIPR 0% HSA, cAMP in HEK-293 cells": 0.26, "EC50 hGIPR 0.1% HSA, cAMP in HEK-293 cells": 2.38}
